According to PMC1933581:

What was measured:
[1] = test system: Rev (C64) (HIV-1, SBBC subject C64); experiment: EMSA; details: 10 mM HEPES/KOH pH 7.6, 150 mM KCl, 2 mM MgCl2, 0.5 mM EGTA, 1 mM DTT, 20% glycerol, 3.2 ug E. coli tRNA in 10 ul; excess RNA, protein 0-0.50 uM; 10 min on …
[2] = test system: Rev (D36) (HIV-1, SBBC subject D36); experiment: EMSA; details: 10 mM HEPES/KOH pH 7.6, 150 mM KCl, 2 mM MgCl2, 0.5 mM EGTA, 1 mM DTT, 20% glycerol, 3.2 ug E. coli tRNA in 10 ul; excess RNA, protein 0-0.50 uM; 10 min on …

Substance: RRE riboprobe
- binding signal (% reduction vs NL4-3 Rev) [1]: 90
- binding signal (% reduction vs NL4-3 Rev) [2]: 90
